{"source": "patent US12698507B2", "about": "“Methods and compositions for conferring and/or enhancing herbicide tolerance using protoporphyrinogen IX oxidase of various cyanobacteria or variant thereof” (FarmHannong Co., Ltd., priority 2019, dated 2026)", "molecules": {"B1": {"name": "CyPPO19 L327T + F360L: variant of CyPPO19 PPO protein (SEQ ID NO: 1) (protein)", "chain": "MSEVDVAIVGGGLSGLSLAWRLQQSAPQYSVVLLEASDRLGGNITTQTAEGFVWELGPNSFAPTPALLQLIAEVGLQSELIRGDRHLPRYIYWRGQLYPLQPTRPLALATSNLLSPWGKVRAALGALGFVPPYLGSGDESVNSFFRRHLGQEVAERLVAPFVSGVYAGDPQQLSAAAAFRRIAQLEKLGGGLIAGALHLRRQQAPKPKPPTSVQMRPGELGSFKEGLAALPRAIAQQLKAPIHLQTPVQEITPDPKGGYLLRSGEQTWRARSVVLATPAYQTAELVAPFQPAIARVLATIPYPTVACVVLAYPAGLGRSVRPGFGVTIPRSQGIRTLGTIWSSCLFPQRTPAGWQVFTSLIGGATDPDLASLSEEAIVQQVQQDLNRLLDLPAAKARLLGMKVWRRAIPQYMVGYPEQWQQVTHALSQTPGLFLCSNYAEGVALGDRVEHGNRTAAAVAAYLSGGQP", "modifications": "Synthetic_PPO of Thermosynechococcus elongatus PKUAC-SCTE542 (comprising GenBank No. CP032152.1)"}, "B2": {"name": "CyPPO19 L327T + F360T: variant of CyPPO19 PPO protein (SEQ ID NO: 1) (protein)", "chain": "B1 chain with L360T", "modifications": "Synthetic_PPO of Thermosynechococcus elongatus PKUAC-SCTE542 (comprising GenBank No. CP032152.1)"}, "B3": {"name": "CyPPO19 I408W + F360I: variant of CyPPO19 PPO protein (SEQ ID NO: 1) (protein)", "chain": "B1 chain with T327L, L360I, I408W", "modifications": "Synthetic_PPO of Thermosynechococcus elongatus PKUAC-SCTE542 (comprising GenBank No. CP032152.1)"}}, "note": "Positions count from the first letter of the chain named. In names and notes the source's numbering stands."}
{"system": "PPO-deficient BT3 E. coli (ΔPPO)", "assay": "PPO-inhibiting herbicide tolerance test of PPO variants in E. coli (growth on herbicide-containing LB agar)", "format": "cell-based", "conditions": "CyPPO19 variants in BT3 (ΔPPO) E. coli; LB agar with 0 to 2,000 μM herbicide, 37° C., dark, 16-20 hours", "how_it_was_run": "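Tolerance was scored against wild-type enzyme: '−' for equal growth, one '+' per 10-fold gain, up to '+++++'. ΔPPO BT3 cells carrying variant plasmids, spotted as a 10-fold dilution series from OD600=0.5, grew 16-20 h at 37° C. in the dark on ampicillin LB agar containing 0 to 2,000 μM herbicide.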"}
{"molecule": "B1", "tolerance level relative to wild type, Carfentrazone": "+ (‘+’ per each 10-fold resistance)", "tolerance level relative to wild type, Flumioxazin": "++++ (‘+’ per each 10-fold resistance)", "tolerance level relative to wild type, Fomesafen": "++ (‘+’ per each 10-fold resistance)", "tolerance level relative to wild type, Oxyfluorfen": "++ (‘+’ per each 10-fold resistance)", "tolerance level relative to wild type, Saflufenacil": "+ (‘+’ per each 10-fold resistance)", "tolerance level relative to wild type, Sulfentrazone": "++ (‘+’ per each 10-fold resistance)", "tolerance level relative to wild type, Tiafenacil": "++++ (‘+’ per each 10-fold resistance)"}
{"molecule": "B2", "tolerance level relative to wild type, Carfentrazone": "+ (‘+’ per each 10-fold resistance)", "tolerance level relative to wild type, Flumioxazin": "+ (‘+’ per each 10-fold resistance)", "tolerance level relative to wild type, Fomesafen": "+ (‘+’ per each 10-fold resistance)", "tolerance level relative to wild type, Oxyfluorfen": "+ (‘+’ per each 10-fold resistance)", "tolerance level relative to wild type, Saflufenacil": "+ (‘+’ per each 10-fold resistance)", "tolerance level relative to wild type, Sulfentrazone": "+ (‘+’ per each 10-fold resistance)", "tolerance level relative to wild type, Tiafenacil": "++ (‘+’ per each 10-fold resistance)"}
{"molecule": "B3", "tolerance level relative to wild type, Carfentrazone": "+ (‘+’ per each 10-fold resistance)", "tolerance level relative to wild type, Flumioxazin": "+++ (‘+’ per each 10-fold resistance)", "tolerance level relative to wild type, Fomesafen": "+++ (‘+’ per each 10-fold resistance)", "tolerance level relative to wild type, Oxyfluorfen": "++ (‘+’ per each 10-fold resistance)", "tolerance level relative to wild type, Saflufenacil": "+++ (‘+’ per each 10-fold resistance)", "tolerance level relative to wild type, Sulfentrazone": "+++ (‘+’ per each 10-fold resistance)", "tolerance level relative to wild type, Tiafenacil": "++++ (‘+’ per each 10-fold resistance)"}
